Assay results from patent publication US20140087995A1 (published 2014).
Numbered stars: 1 amine (or outer) side, 2 acyl side, 3 side chain; on linkers, the order of the positions; unused ones are H or OH. Bridge positions count the residues as written; N and C are the ends. Side chains are listed from the residue outwards. Ends that are not written are not given here. * marks the point of attachment. C20 diacid = O=C(O)CCCCCCCCCCCCCCCCCCC(=O)*; γGlu = O=C(O)[C@H](CCC(=O)[*:2])N[*:1]; AEEA = NCCOCCOCC(=O)O

T1: human calcitonin receptor (human, UniProt P30988 25-474)
T1 sequence (looked up): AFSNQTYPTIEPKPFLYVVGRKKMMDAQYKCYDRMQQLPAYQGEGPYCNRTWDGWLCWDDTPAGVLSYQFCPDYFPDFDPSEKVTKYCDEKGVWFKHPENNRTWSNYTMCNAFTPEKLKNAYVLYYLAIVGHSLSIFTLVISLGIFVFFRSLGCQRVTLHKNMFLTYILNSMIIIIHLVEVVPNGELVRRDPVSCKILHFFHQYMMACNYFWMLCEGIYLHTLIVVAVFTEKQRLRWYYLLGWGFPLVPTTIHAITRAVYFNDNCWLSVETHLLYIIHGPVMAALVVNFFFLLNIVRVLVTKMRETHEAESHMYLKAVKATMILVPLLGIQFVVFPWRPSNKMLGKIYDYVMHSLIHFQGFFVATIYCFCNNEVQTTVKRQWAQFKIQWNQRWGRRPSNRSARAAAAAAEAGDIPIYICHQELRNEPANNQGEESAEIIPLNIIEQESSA

T2: human amylin receptor (amylin 3(a) receptor: human calcitonin receptor plus RAMP-3) (human, UniProt P30988 25-474; O60896 24-148, limits assumed)
T2 sequence (looked up) 1: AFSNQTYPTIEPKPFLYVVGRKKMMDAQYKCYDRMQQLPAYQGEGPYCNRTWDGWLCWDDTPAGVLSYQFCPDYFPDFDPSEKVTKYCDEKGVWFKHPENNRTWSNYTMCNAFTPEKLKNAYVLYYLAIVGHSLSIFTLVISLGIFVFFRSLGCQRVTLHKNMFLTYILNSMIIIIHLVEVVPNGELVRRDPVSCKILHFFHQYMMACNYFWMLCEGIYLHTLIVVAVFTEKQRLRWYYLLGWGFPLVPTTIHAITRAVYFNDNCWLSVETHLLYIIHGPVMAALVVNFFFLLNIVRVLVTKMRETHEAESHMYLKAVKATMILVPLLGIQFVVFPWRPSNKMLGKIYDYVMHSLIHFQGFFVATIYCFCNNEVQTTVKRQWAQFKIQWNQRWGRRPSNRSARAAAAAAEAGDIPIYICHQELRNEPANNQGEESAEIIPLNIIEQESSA
T2 sequence (looked up) 2: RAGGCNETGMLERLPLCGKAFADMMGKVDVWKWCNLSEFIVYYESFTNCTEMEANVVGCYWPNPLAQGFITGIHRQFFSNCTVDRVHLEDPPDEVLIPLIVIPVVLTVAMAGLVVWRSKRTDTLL


Tests used:
[1] = biological target: T1, human calcitonin receptor; assay: cell-based or functional assay
[2] = biological target: T2, human amylin receptor (amylin 3(a) …); assay: cell-based or functional assay

Row | Ratio hCT/hAmylin funct. (hCTR EC50 against hAmylin-R EC50) [1] | hCTR funct. EC50 [1] | hAmylin-R funct. EC50 [2] | Binder
1 | 6.5 | 0.92 nM | 0.141 nM | K([AEEA-C20 diacid])CNTATCATQRLANFLRHSSPNFGAIPSSTNVGSNTY-NH2 (disulfide 2-7; N-terminus assumed; SMILES CC[C@H](C)[C@H](NC(=O)[C@H](C)NC(=O)CNC(=O)[C@H](Cc1ccccc1)NC(=O)[C@H](CC(N)=O)NC(=O)[C@@H]1CCCN1C(=O)[C@H](CO)NC(=O)[C@H](CO)NC(=O)[C@H](Cc1c[nH]cn1)NC(=O)[C@H](CCCNC(=N)N)NC(=O)[C@H](CC(C)C)NC(=O)[C@H](Cc1ccccc1)NC(=O)[C@H](CC(N)=O)NC(=O)[C@H](C)NC(=O)[C@H](CC(C)C)NC(=O)[C@H](CCCNC(=N)N)NC(=O)[C@H](CCC(N)=O)NC(=O)[C@@H](NC(=O)[C@H](C)NC(=O)[C@@H]1CSSC[C@H](NC(=O)[C@@H](N)CCCCNC(=O)COCCOCCNC(=O)CCCCCCCCCCCCCCCCCCC(=O)O)C(=O)N[C@@H](CC(N)=O)C(=O)N[C@@H]([C@@H](C)O)C(=O)N[C@@H](C)C(=O)N[C@@H]([C@@H](C)O)C(=O)N1)[C@@H](C)O)C(=O)N1CCC[C@H]1C(=O)N[C@@H](CO)C(=O)N[C@@H](CO)C(=O)N[C@H](C(=O)N[C@@H](CC(N)=O)C(=O)N[C@H](C(=O)NCC(=O)N[C@@H](CO)C(=O)N[C@@H](CC(N)=O)C(=O)N[C@H](C(=O)N[C@@H](Cc1ccc(O)cc1)C(N)=O)[C@@H](C)O)C(C)C)[C@@H](C)O, also called compound 43) [N^ε1-[2-[2-[2-(19-carboxynonadecanoylamino)ethoxy]ethoxy]acetyl]-[Arg17,Pro21,Pro27]-h-amylin]
2 | 46.2 | 10 nM | 0.217 nM | K([AEEA-AEEA-γGlu-C20 diacid])CNTATCATQRLANFLRHSSPNFGAIPSSTNVGSETY-NH2 (disulfide 2-7; N-terminus assumed; SMILES CC[C@H](C)[C@H](NC(=O)[C@H](C)NC(=O)CNC(=O)[C@H](Cc1ccccc1)NC(=O)[C@H](CC(N)=O)NC(=O)[C@@H]1CCCN1C(=O)[C@H](CO)NC(=O)[C@H](CO)NC(=O)[C@H](Cc1c[nH]cn1)NC(=O)[C@H](CCCNC(=N)N)NC(=O)[C@H](CC(C)C)NC(=O)[C@H](Cc1ccccc1)NC(=O)[C@H](CC(N)=O)NC(=O)[C@H](C)NC(=O)[C@H](CC(C)C)NC(=O)[C@H](CCCNC(=N)N)NC(=O)[C@H](CCC(N)=O)NC(=O)[C@@H](NC(=O)[C@H](C)NC(=O)[C@@H]1CSSC[C@H](NC(=O)[C@@H](N)CCCCNC(=O)COCCOCCNC(=O)COCCOCCNC(=O)CC[C@H](NC(=O)CCCCCCCCCCCCCCCCCCC(=O)O)C(=O)O)C(=O)N[C@@H](CC(N)=O)C(=O)N[C@@H]([C@@H](C)O)C(=O)N[C@@H](C)C(=O)N[C@@H]([C@@H](C)O)C(=O)N1)[C@@H](C)O)C(=O)N1CCC[C@H]1C(=O)N[C@@H](CO)C(=O)N[C@@H](CO)C(=O)N[C@H](C(=O)N[C@@H](CC(N)=O)C(=O)N[C@H](C(=O)NCC(=O)N[C@@H](CO)C(=O)N[C@@H](CCC(=O)O)C(=O)N[C@H](C(=O)N[C@@H](Cc1ccc(O)cc1)C(N)=O)[C@@H](C)O)C(C)C)[C@@H](C)O, also called compound 25)
